Results published in PMC3821029.

Substrate: CO[C@H]1O[C@H](COS(=O)(=O)O)[C@@H](O[C@@H]2O[C@@H](C(=O)O)[C@@H](O[C@H]3O[C@H](COS(=O)(=O)O)[C@@H](O[C@@H]4O[C@H](C(=O)O)[C@@H](O[C@H]5O[C@H](COS(=O)(=O)O)[C@@H](O)[C@H](O)[C@H]5NS(=O)(=O)O)[C@H](O)[C@H]4O)[C@H](OS(=O)(=O)O)[C@H]3NS(=O)(=O)O)[C@H](O)[C@H]2OS(=O)(=O)O)[C@H](O)[C@H]1NS(=O)(=O)O
Test: purified protein, by the assay type
Details: pH 5.0

B1: Recombinant human heparanase (Homo sapiens) (protein)
chain 1: KKFKNSTYSRSSVDVLYTFANCSGLDLIFGLNALLRTADLQWNSSNAQLLLDYCSSKGYNISWELGNEPNSFLKKADIFINGSQLGEDFIQLHKLLRKSTFKNAKLYGPDVGQPRRKTAKMLKSFLKAGGEVIDSVTWHHYYLNGRTATKEDFLNPDVLDIFISSVQKVFQVVESTRPGKKVWLGETSSAYGGGAPLLSDTFAAGFMWLDKLGLSARMGIEVVMRQVFFGAGNYHLVDENFDPLPDYWLSLLFKKLVGTKVLMASVQGSKRRKLRVYLHCTNTDNPRYKEGDLTLYAINLHNVTKYLRLPYPFSNKQVDKYLLRPLGPHGLLSKSVQLNGLTLKMVDDQTLPPLMEKPLRPGSSLGLPAFSYSFFVIRNAKVAACI
chain 2: QDVVDLDFFTQEPLHLVSPSFLSVTIDANLATDPRFLILLGSPKLRTLARGLSPAYLRFGGTKTDFLIFDPKKE
Km: 3.6 ± 0.5 µM
